The values that follow come from patent US20050003403A1 (IBC PHARMACEUTICALS, published 2005).

In test [1] the target is T1, carcinoembryonic antigen (CEA) (UniProt P06731 35-685, limits assumed).
T1 construct: Coated on ELISA wells (0.5 ug/well), injected in BIAcore, or mixed in solution for SE-HPLC
T1 sequence (looked up): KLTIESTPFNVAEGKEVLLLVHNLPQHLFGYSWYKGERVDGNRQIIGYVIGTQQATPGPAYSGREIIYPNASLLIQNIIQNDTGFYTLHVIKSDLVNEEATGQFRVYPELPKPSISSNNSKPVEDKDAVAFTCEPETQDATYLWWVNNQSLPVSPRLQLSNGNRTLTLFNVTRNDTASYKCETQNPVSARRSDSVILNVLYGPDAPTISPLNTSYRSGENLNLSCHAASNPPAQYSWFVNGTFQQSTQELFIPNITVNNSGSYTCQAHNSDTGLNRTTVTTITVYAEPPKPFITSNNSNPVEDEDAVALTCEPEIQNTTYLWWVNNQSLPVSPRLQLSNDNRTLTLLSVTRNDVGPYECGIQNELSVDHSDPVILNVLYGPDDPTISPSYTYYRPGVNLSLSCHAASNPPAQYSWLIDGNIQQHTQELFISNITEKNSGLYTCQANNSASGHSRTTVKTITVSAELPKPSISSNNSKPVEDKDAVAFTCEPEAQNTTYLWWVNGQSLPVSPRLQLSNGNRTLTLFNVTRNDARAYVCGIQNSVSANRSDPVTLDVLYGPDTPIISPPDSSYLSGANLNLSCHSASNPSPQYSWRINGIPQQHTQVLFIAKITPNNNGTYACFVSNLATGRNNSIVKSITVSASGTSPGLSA
Kind of test: competitive ELISA, CEA-coated wells (0.5 ug/well), competitor HRP-conjugated hMN-14 IgG (1 nM). Here is the method: HRP-conjugated hMN14 IgG (1 nM) was mixed with either BS14HP, BS1.5H (a bispecific diabody, monovalent for CEA and monovalent for HSG, derived from the same variable domains as BS14HP) or hMN14 F(ab′)₂ at concentrations ranging from 1-250 nM, prior to incubation in CEA-coated (0.5 μg/well) wells. The % inhibition is plotted vs. nM concentration of sample.
The CEA binding of BS14HP was analyzed in a competitive ELISA and compared to BS1.5H and hMN-14 F(ab′)₂, which have one and two CEA binding groups, respectively (FIG. 6). HRP-conjugated hMN-14 IgG (1 nM) was mixed with either BS14HP, BS1.5H or hMN-14 F(ab′)₂ at concentrations ranging from 1 to 250 nM, prior to incubation in CEA-coated (0.5 μg/well) wells. The IC₅₀ for BS14HP was 2.7 nM which is close to 2.0 nM for hMN14 F(ab′)₂.
A general note: An ELISA detects its analyte on a solid surface through an enzyme-linked reagent.

The target in test [2] is T1, carcinoembryonic antigen (CEA). Nature of the test: BIAcore, hBS14 captured on HSG sensorchip, then CEA injected.

For orientation: IC50 means the concentration at which inhibition is half-maximal. Read a low IC50 as higher potency.

B1: hMN-14 F(ab')2 (other)
VH: EVQLVESGGGVVQPGRSLRLSCSASGFDFTTYWMSWVRQAPGKGLEWIGEIHPDSSTINYAPSLKDRFTISRDNAKNTLFLQMDSLRPEDTGVYFCASLYFGFPWFAYWGQGTPVTVS
VL: DIQLTQSPSSLSASVGDRVTITCKASQDVGTSVAWYQQKPGKAPKLLIYWTSTRHTGVPSRFSGSGSGTDFTFTISSLQPEDIATYYCQQYSLYRSFGQGTKVEIKR
notes: F(ab')2 of humanized anti-CEA hMN-14, 100 kDa; The VH in the construct ends ...VTVS
The molecule B1 had an IC50 in test [1] of 2 nM.

B2: BS14HP (bispecific antibody)
chain 1: EAEAEFMEVQLVESGGDLVKPGGSLKLSCAASGFTFSIYTMSWLRQTPGKGLEWVATLSGDGDDIYYPDSVKGRFTISRDNAKNSLYLQMNSLRAEDTALYYCARVRLGDWDFDVWGQGTTVSVSSGGGGSDIQLTQSPSSLSASVGDRVTITCKASQDVGTSVAWYQQKPGKAPKLLIYWTSTRHTGVPSRFSGSGSGTDFTFTISSLQPEDIATYYCQQYSLYRSFGQGTKVEIKRLEGGGSEVQLVESGGGVVQPGRSLRLSCSASGFDFTTYWMSWVRQAPGKGLEWIGEIHPDSSTINYAPSLKDRFTISRDNAKNTLFLQMDSLRPEDTGVYFCASLYFGFPWFAYWGQGTPVTVSVDHHHHHH
chain 2: EAEAEFDIQLTQSPSSLSASVGDRVTITCKASQDVGTSVAWYQQKPGKAPKLLIYWTSTRHTGVPSRFSGSGSGTDFTFTISSLQPEDIATYYCQQYSLYRSFGQGTKVEIKRGGGQFMEVQLVESGGGVVQPGRSLRLSCSASGFDFTTYWMSWVRQAPGKGLEWIGEIHPDSSTINYAPSLKDRFTISRDNAKNTLFLQMDSLRPEDTGVYFCASLYFGFPWFAYWGQGTPVTVSGGGGSDIVMTQSPSSLAVSPGERVTLTCKSSQSLFNSRTRKNYLGWYQQKPGQSPKLLIYWASTRESGVPDRFSGSGSGTDFTLTINSLQAEDVAVYYCTQVYYLCTFGAGTKLELKRLDHHHHHH
notes: Non-covalent heterodimer with two CEA sites and one HSG site; The alpha-factor signal peptide is removed on secretion; also called bispecific trivalent heterodimer; hMN-14 x hMN-14 x 679 produced in Pichia pastoris
As to B2, the IC50 in test [1] worked out at 2.7 nM.

B3: hBS14 (bispecific antibody)
chain 1: MEVQLVESGGDLVKPGGSLKLSCAASGFTFSIYTMSWLRQTPGKGLEWVATLSGDGDDIYYPDSVKGRFTISRDNAKNSLYLQMNSLRAEDTALYYCARVRLGDWDFDVWGQGTTVSVSSGGGGSDIQLTQSPSSLSASVGDRVTITCKASQDVGTSVAWYQQKPGKAPKLLIYWTSTRHTGVPSRFSGSGSGTDFTFTISSLQPEDIATYYCQQYSLYRSFGQGTKVEIKRLEGGGSEVQLVESGGGVVQPGRSLRLSCSASGFDFTTYWMSWVRQAPGKGLEWIGEIHPDSSTINYAPSLKDRFTISRDNAKNTLFLQMDSLRPEDTGVYFCASLYFGFPWFAYWGQGTPVTVSVDHHHHHH
chain 2: MDIQLTQSPSSLSASVGDRVTITCKASQDVGTSVAWYQQKPGKAPKLLIYWTSTRHTGVPSRFSGSGSGTDFTFTISSLQPEDIATYYCQQYSLYRSFGQGTKVEIKRGGGQFMEVQLVESGGGVVQPGRSLRLSCSASGFDFTTYWMSWVRQAPGKGLEWIGEIHPDSSTINYAPSLKDRFTISRDNAKNTLFLQMDSLRPEDTGVYFCASLYFGFPWFAYWGQGTPVTVSGGGGSDIVMTQSPSSLAVSPGERVTLTCKSSQSLFNSRTRKNYLGWYQQKPGQSPKLLIYWASTRESGVPDRFSGSGSGTDFTLTINSLQAEDVAVYYCTQVYYLCTFGAGTKLELKRLDHHHHHH
notes: 79.4 kDa heterodimer of polypeptide 1 and polypeptide 2, produced in SP2/0, YB2/0 or NS0 cells; Bivalent for CEA, monovalent for HSG; also called bispecific trivalent heterodimer expressed in myeloma cells; hMN-14 x hMN-14 x 679
Regarding B3, in test [2], the binding result is “binds”.

B4: BS1.5H (bispecific antibody)
chain 1: MEVQLVESGGDLVKPGGSLKLSCAASGFTFSIYTMSWLRQTPGKGLEWVATLSGDGDDIYYPDSVKGRFTISRDNAKNSLYLQMNSLRAEDTALYYCARVRLGDWDFDVWGQGTTVSVSSGGGGSDIQLTQSPSSLSASVGDRVTITCKASQDVGTSVAWYQQKPGKAPKLLIYWTSTRHTGVPSRFSGSGSGTDFTFTISSLQPEDIATYYCQQYSLYRSFGQGTKVEIKRLEHHHHHH
chain 2: MEVQLVESGGGVVQPGRSLRLSCSASGFDFTTYWMSWVRQAPGKGLEWIGEIHPDSSTINYAPSLKDRFTISRDNAKNTLFLQMDSLRPEDTGVYFCASLYFGFPWFAYWGQGTPVTVSGGGGSDIVMTQSPSSLAVSPGERVTLTCKSSQSLFNSRTRKNYLGWYQQKPGQSPKLLIYWASTRESGVPDRFSGSGSGTDFTLTINSLQAEDVAVYYCTQVYYLCTFGAGTKLELKRLEHHHHHH
The molecule B4 displayed a 50% inhibitory concentration (IC50) in test [1] of 10 nM.
